Source: article PMC12017984
pKd: −log10 of the molar value.

Legend:
[1] = biological target: Recombinant His-tagged human apolipoprotein A-IV, apoA-IV^T347S (human) (UniProt P06727); test: BLI
[2] = biological target: Recombinant human apolipoprotein A-IV, apoA-IV^T347S, His tag-free (human) (UniProt P06727); test: ITC
[3] = biological target: Recombinant human apolipoprotein A-IV, apoA-IV^WT, His tag-free (human) (UniProt P06727); test: ITC

For “Human platelet integrin αIIbβ3 (from UniProt P05106 27-788) (receptor)”, the pKd [1] was 6.40.
“Recombinant human apolipoprotein A-IV, apoA-IV^T347S, His tag-free (from UniProt P06727 21-396) (natural protein)” was tested, and the pKd [2] was 3.99 and the dH [2] was -34 kcal/mol.
With “Recombinant human apolipoprotein A-IV, apoA-IV^WT, His tag-free (from UniProt P06727 21-396) (natural protein)” the Kd1 [3] was 0.63 µM, the Kd2 [3] was 54 nM and the dH1 [3] was 2.7 kcal/mol. For the same substance, the dH2 [3] was -27 kcal/mol.
